Assays:
MS2 coat protein [1] = experiment: apparent KD of MS2 coat protein; designed switch direction (-1 OFF switch, 1 ON switch): 1; higher = weaker reporter binding
Method in brief: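 For each design, the apparent KD is the median over clusters of curves fitted to normalised cluster fluorescence. Clusters held RNA switches with common flanks, transcribed on Illumina chips by stalled E. coli RNA polymerase. These were titrated with SNAP-549-labelled MS2 coat protein, doubling from 0.7 or 1.5 nM to 3 µM, without input, with 200 uM small-molecule ligand, or with an oligonucleotide input.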

MS2 coat protein [2] = experiment: apparent KD of MS2 coat protein; higher = weaker reporter binding; details: Eterna round: R107
Method in brief: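 Illumina sequencing clusters were used for on-chip transcription of designed RNA switches. Titration with SNAP-549-labelled MS2 coat protein followed, in twofold steps from 0.7 or 1.5 nM to 3 µM in 100 mM Tris-HCl pH 7.5, 80 mM KCl, 4 mM MgCl2, without or with constant ligand. Apparent KD is each design's median of fits to normalised cluster binding curves.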

[3] = input ligand: microRNA oligo, concentration not stated
[4] = Eterna round: R95, input ligand: FMN 200 uM
[5] = Eterna round: R95, input ligand: microRNA oligo, concentration not stated
[6] = Eterna round: R95, input ligand: none
[7] = input ligand: theophylline 20 uM
[8] = input ligand: theophylline 2 mM
[9] = input ligand: tryptophan 2.4 mM

Sequence | apparent KD of MS2 coat protein (MS2 coat protein [1]; input ligand: FMN 200 uM) [nM] | apparent KD of MS2 coat protein (MS2 coat protein [1]; [3]) [nM] | apparent KD of MS2 coat protein (MS2 coat protein [1]; input ligand: none) [nM] | apparent KD of MS2 coat protein (MS2 coat protein [2]; input ligand: arginine 13.2 mM) [nM] | apparent KD of MS2 coat protein (MS2 coat protein [2]; [7]) [nM] | also measured
AAAAAACAUGAGGAUCACCCAUGUAAAAAUAUGGGAGGAUAUUCAAACACGAAAGUGAAAGAAGAAGGCCUAAAAA [SS! MT 18] (Eterna round: R96, puzzle: Same State 1) | 17.5 | 56.7 | 81.3 |  |  | 
AAAAAACAUGAGGAUCACCCAUGUCAAAAGACGUGAGGAUAUGUACAGACUUCGGUCUGUACAGAAGGCACGAAAA [SS1 - 1037] (Eterna round: R96, puzzle: Same State 1) | 17.6 | 19.1 | 26.9 |  |  | 
AAAAGCGACGUAGGAUAUCCUCUACAUGCGUAAGGAGAAGGAUGCGCAACAUGAGGAUCACCCAUGUAAAACCAGCACUACUGG [Zalaendi] (Eterna round: R96, puzzle: Same State NG 1) | 53.1 | 32.6 | 44.9 |  |  | 
AAAAUAAAAUAAAAGGAUAUAAAAUAAAAUACAUGAGGAUCACCCAUGUAUAAAAUAAAAAAAUAAAAGAAGGAAUAAAAAUAAA [SS2 504: MS2 4] (Eterna round: R96, puzzle: Same State 2) | 28.3 | 22.9 | 26.7 |  |  | 
AAAAUGGUAUGUUACAUGAGGAUCACCCAUGUACUCUCCUCUGAGGAUAUGGGAAUGUUGAAAAACCAGAAGGCAGACAUCCAA [AK SSNG3-V2-22] (Eterna round: R96, puzzle: Same State NG 3) | 139 | 177 | 192 |  |  | 
AAACACAGCAUAACGCCGUGACAUGAGGAUCACCCAUGUACACAGGAUAUCAUGGCAUAACGCCAUGAGAAGGGUGAUCAAGAC [Raorma] (Eterna round: R96, puzzle: Same State NG 3) | 732 | 77 | 78.8 |  |  | 
AAAGCACAUGAGGAUCACCCAUGUGGAAAUAACACAGGAUAUCUGACCGAAACUAAGGCGAGAGAAGGGUGACCUA [Engeerbi] (puzzle: Same State 1) |  |  |  |  |  | apparent KD of MS2 coat protein (MS2 coat protein [1]; [4]): 148 nM; apparent KD of MS2 coat protein (MS2 coat protein [1]; [5]): 62.8 nM; apparent KD of MS2 coat protein (MS2 coat protein [1]; [6]): 78.9 nM
AAAGGAUGAUGUUACAUGAGGAUCACCCAUGUUGUGAUAACUAAGGAUAUGUGUUUAACUAGUUAAUAGAAGGUAGGAUCAUAA [AK SSNG3-V2-3] (Eterna round: R96, puzzle: Same State NG 3) | 150 | 84.2 | 118 |  |  | 
AAAUAGCAUGGAAACAUGCUAAAAACUGUACAUGAGGAUCACCCAUGUCAUGUGUAGGCUUUUUGUUCGUCUUAUAA [Effort 12] (Eterna round: R96, puzzle: Sensor for hsa-mir-208a) | 25.5 | 12.3 | 27.8 |  |  | 
AAAUGUAGGAAACAACAGCAAGAGCAUGUACAUGAGGAUCACCCAUGUCAUGUACAAGCUUUUUGCUGGUCUUAUUA [ak 2 mod of one Eli's designs..] (puzzle: Sensor for hsa-mir-208a) |  |  |  |  |  | apparent KD of MS2 coat protein (MS2 coat protein [1]; [4]): 23.7 nM; apparent KD of MS2 coat protein (MS2 coat protein [1]; [5]): 31 nM; apparent KD of MS2 coat protein (MS2 coat protein [1]; [6]): 19.6 nM
AACAAAUACACAGGAUAUACAGUGGCAACCACUGUAGAAGGGUGGGCGGGUUCCAACAUGAGGAUCACCCAUGUACCCAAUAAC [Atbiladi] (Eterna round: R96, puzzle: Same State NG 1) | 521 | 535 | 882 |  |  | 
UGUGUAAUUGUCUGGUAGAAUUAUUUGUUUCGAGGACCGGUACGGCCGCCACUCGAUAUUUACAUGAGGAUCACCCAUGUUAGCU [JR_SSTryptoA_Sub004] |  |  |  | 13.9 | 14.3 | apparent KD of MS2 coat protein (MS2 coat protein [2]; input ligand: none): 14 nM; apparent KD of MS2 coat protein (MS2 coat protein [2]; [8]): 14.9 nM; apparent KD of MS2 coat protein (MS2 coat protein [2]; [9]): 11.6 nM
UGUUUCGCGGGCGAUACCAGCUUGAUCGUACUGGCCUGGUACAUGAGGAUCACCCAUGUAAGCCCUUGGCAGCGCGCGCGAGACG [#1 Exclusion - Theophylline B Attempt #3 (HarryS)] |  |  |  | 19.6 | 18.9 | apparent KD of MS2 coat protein (MS2 coat protein [2]; input ligand: none): 13.5 nM; apparent KD of MS2 coat protein (MS2 coat protein [2]; [8]): 32.4 nM; apparent KD of MS2 coat protein (MS2 coat protein [2]; [9]): 15.7 nM
UUAAAUGUGACGGAUACCAGCGUGUUGUAGAACAUGAGGAUCACCCAUGUAGUGAUCAAGCGCCCUUGGCAGCUGGUAUGUUUGA [7.Z] |  |  |  | 227 | 224 | apparent KD of MS2 coat protein (MS2 coat protein [2]; [9]): 124 nM
UUAAAUGUGACGGAUACCAGCGUGUUGUAGAACAUGAGGAUCACCCAUGUAGUGAUCGAGCGCCCUUGGCAGCUGGUAUGUUUGA [7.Y] |  |  |  | 102 | 365 | apparent KD of MS2 coat protein (MS2 coat protein [2]; [9]): 270 nM
UUAAUUAUUGAAUCGUAUUGGUAUUAAGAACGAGGACCGGUACGGCCGCCACUCGUGAUAUACAUGAGGAUCACCCAUGUUAGCA [JR_Nu_SSTryptoA_Sub022] |  |  |  | 15 | 18.6 | apparent KD of MS2 coat protein (MS2 coat protein [2]; [8]): 18.1 nM
UUACCGUAAGGUAUACCGGUCUACAAUAAUCGAGGACCGGUACGGCCGCCACUCGAUGUGUAAUCACAUGAGGAUCACCCAUGUA [Tryptophan A 19] |  |  |  | 21.1 | 27.7 | apparent KD of MS2 coat protein (MS2 coat protein [2]; [8]): 27.4 nM

Source: the supplement of paper PMC9170038
